From the RNAGym collection of RNA variant scans (doi:10.7554/elife.80360)

B1: Hammerhead Ribozyme (parent)
chain: ACCGGAUGUGCUUUCCGGUCUGAUGAGUCCGUGAGGACGAAACAG

Variants of: B1
Test: self-cleavage, relative activity (ratio to wild type); higher = more cleavage; co-transcriptional
In the case of ACCGGAUGUGCUUUCCGGUCUGACGACUCCGUGAGGACGAAACAG, the self-cleavage is reported as 0.559. ACCGGAUGUGCUUUCCGGUCUGACGAAUCCGUGAGGACGAAACAG showed a self-cleavage of 0.53. With ACCGGAUGUGCUUUCCGGUCUGACGAUUCCGUGAGGACGAAACAG the self-cleavage was 0.335. With ACCGGAUGUGCUUUCCGGUCUGAAGAGUCCGUGAGGACGAAACUG the self-cleavage was 0.712. ACCGGAUGUGCUUUCCGGUCUGAAGAGUCCGUGAGGACGAAACGG gave a self-cleavage of 1.68. In the case of ACCGGAUGUGCUUUCCGGUCUGAAGAGUCCGUGAGGACGAAACCG, the self-cleavage is reported as 0.46. ACCGGAUGUGCUUUCCGGUCUGAAGAGUCCGUGAGGACGGAACAG showed a self-cleavage of 0.337. Variant ACCGGAUGUGCUUUCCGGUCUGAAGAGUCCGUGAGGACGCAACAG has a self-cleavage of 0.421. ACCGGAUGUGCUUUCCGGUCUGAAGAGUCCGUGAGGACGUAACAG gave a self-cleavage of 0.359. Work on ACCGGAUGUGCUUUCCGGUCUGACGAGUGCGUGAGGACGAAACAG yielded a self-cleavage of 0.605. Variant ACCGGAUGUGCUUUCCGGUCUGACGAGUUCGUGAGGACGAAACAG has a self-cleavage of 1.05. ACCGGAUGUGCUUUCCGGUCUGACGAGUACGUGAGGACGAAACAG showed a self-cleavage of 0.416. Work on ACCGGAUGUGCUUUCCGGUCUGAAGAGUCCGUGAGGAAGAAACAG yielded a self-cleavage of 0.696. ACCGGAUGUGCUUUCCGGUCUGAAGAGUCCGUGAGGAGGAAACAG showed a self-cleavage of 0.645. ACCGGAUGUGCUUUCCGGUCUGAAGAGUCCGUGAGGAUGAAACAG gave a self-cleavage of 0.993. With ACCGGAUGUGCUUUCCGGUCUGACGAGUCCGUGAGGACGCAACAG the self-cleavage was 0.47. Variant ACCGGAUGUGCUUUCCGGUCUGACGAGUCCGUGAGGACGUAACAG has a self-cleavage of 0.281. ACCGGAUGUGCUUUCCGGUCUGACGAGUCCGUGAGGACGGAACAG gave a self-cleavage of 0.27. ACCGGAUGUGCUUUCCGGUCUGAAGAGUACGUGAGGACGAAACAG gave a self-cleavage of 0.786. For ACCGGAUGUGCUUUCCGGUCUGAAGAGUGCGUGAGGACGAAACAG, the self-cleavage was 0.79. Variant ACCGGAUGUGCUUUCCGGUCUGAAGAGUUCGUGAGGACGAAACAG has a self-cleavage of 0.883. Variant ACCGGAUGUGCUUUCCGGUCUGAAGAGUCCGUGUGGACGAAACAG has a self-cleavage of 0.849. In the case of ACCGGAUGUGCUUUCCGGUCUGAAGAGUCCGUGGGGACGAAACAG, the self-cleavage is reported as 0.777. For ACCGGAUGUGCUUUCCGGUCUGAAGAGUCCGUGCGGACGAAACAG, the self-cleavage was 0.88. ACCGGAUGUGCUUUCCGGUCUGAAGAGUCCGUGAGAACGAAACAG gave a self-cleavage of 0.669. ACCGGAUGUGCUUUCCGGUCUGAAGAGUCCGUGAGUACGAAACAG gave a self-cleavage of 0.618. Work on ACCGGAUGUGCUUUCCGGUCUGAAGAGUCCGUGAGCACGAAACAG yielded a self-cleavage of 0.362. Work on ACCGGAUGUGCUUUCCGGUCUGAAGAGUCCGUGAGGACGAAAUAG yielded a self-cleavage of 0.518. ACCGGAUGUGCUUUCCGGUCUGAAGAGUCCGUGAGGACGAAAGAG showed a self-cleavage of 0.374. Variant ACCGGAUGUGCUUUCCGGUCUGAAGAGUCCGUGAGGACGAAAAAG has a self-cleavage of 0.341. With ACCGGAUGUGCUUUCCGGUCUGACGAGUCCGUGAGGACGAAAAAG the self-cleavage was 0.271. ACCGGAUGUGCUUUCCGGUCUGACGAGUCCGUGAGGACGAAAUAG showed a self-cleavage of 0.404. For ACCGGAUGUGCUUUCCGGUCUGACGAGUCCGUGAGGACGAAAGAG, the self-cleavage was 0.36. ACCGGAUGUGCUUUCCGGUCUGACGAGUCCGUGACGACGAAACAG gave a self-cleavage of 0.461. For ACCGGAUGUGCUUUCCGGUCUGACGAGUCCGUGAAGACGAAACAG, the self-cleavage was 0.702. ACCGGAUGUGCUUUCCGGUCUGACGAGUCCGUGAUGACGAAACAG gave a self-cleavage of 0.655. In the case of ACCGGAUGUGCUUUCCGGUCUGAAGAGUCCGUGAGGACUAAACAG, the self-cleavage is reported as 0.464. With ACCGGAUGUGCUUUCCGGUCUGAAGAGUCCGUGAGGACAAAACAG the self-cleavage was 0.382. Work on ACCGGAUGUGCUUUCCGGUCUGAAGAGUCCGUGAGGACCAAACAG yielded a self-cleavage of 0.496. Variant ACCGGAUGUGCUUUCCGGUCUGACGAGUCCGUGAGGAAGAAACAG has a self-cleavage of 0.676. With ACCGGAUGUGCUUUCCGGUCUGACGAGUCCGUGAGGAUGAAACAG the self-cleavage was 0.901. ACCGGAUGUGCUUUCCGGUCUGACGAGUCCGUGAGGAGGAAACAG showed a self-cleavage of 0.601. With ACCGGAUGUGCUUUCCGGUCUGACGAGUCCGUGGGGACGAAACAG the self-cleavage was 0.901. ACCGGAUGUGCUUUCCGGUCUGACGAGUCCGUGCGGACGAAACAG showed a self-cleavage of 0.746. Work on ACCGGAUGUGCUUUCCGGUCUGACGAGUCCGUGUGGACGAAACAG yielded a self-cleavage of 0.824. ACCGGAUGUGCUUUCCGGUCUGACAAGUCCGUGAGGACGAAACAG gave a self-cleavage of 0.363. Variant ACCGGAUGUGCUUUCCGGUCUGACCAGUCCGUGAGGACGAAACAG has a self-cleavage of 0.324. ACCGGAUGUGCUUUCCGGUCUGACUAGUCCGUGAGGACGAAACAG gave a self-cleavage of 0.305. Variant ACCGGAUGUGCUUUCCGGUCUGAAGAGUCCGUGAGGUCGAAACAG has a self-cleavage of 0.771. For ACCGGAUGUGCUUUCCGGUCUGAAGAGUCCGUGAGGCCGAAACAG, the self-cleavage was 1.03. For ACCGGAUGUGCUUUCCGGUCUGAAGAGUCCGUGAGGGCGAAACAG, the self-cleavage was 1.09. Work on ACCGGAUGUGCUUUCCGGUCUGACGAGUCCGUGAGCACGAAACAG yielded a self-cleavage of 0.383. ACCGGAUGUGCUUUCCGGUCUGACGAGUCCGUGAGAACGAAACAG showed a self-cleavage of 0.56. In the case of ACCGGAUGUGCUUUCCGGUCUGACGAGUCCGUGAGUACGAAACAG, the self-cleavage is reported as 0.541. Work on ACCGGAUGUGCUUUCCGGUCUGAAGAGUCAGUGAGGACGAAACAG yielded a self-cleavage of 0.928. In the case of ACCGGAUGUGCUUUCCGGUCUGAAGAGUCUGUGAGGACGAAACAG, the self-cleavage is reported as 0.785. Variant ACCGGAUGUGCUUUCCGGUCUGAAGAGUCGGUGAGGACGAAACAG has a self-cleavage of 1.04.
